Data: IntAct's records for PubMed 31515488

B1: Kinesin-associated protein 3 (Homo sapiens), Q92845 (parent)
chain: MQGEDARYLKRKVKGGNIDVHPSEKALIVHYEVEATILGEMGDPMLGERKECQKIIRLKSLNANTDITSLARKVVEECKLIHPSKLNEVEQLLYYLQNRRDSLSGKEKKEKSSKPKDPPPFEGMEIDEVANINDMDEYIELLYEDIPDKVRGSALILQLARNPDNLEELLLNETALGALARVLREDWKQSVELATNIIYIFFCFSSFSQFHGLITHYKIGALCMNIIDHELKRHELWQEELSKKKKAVDEDPENQTLRKDYEKTFKKYQGLVVKQEQLLRVALYLLLNLAEDTRTELKMRNKNIVHMLVKALDRDNFELLILVVSFLKKLSIFMENKNDMVEMDIVEKLVKMIPCEHEDLLNITLRLLLNLSFDTGLRNKMVQVGLLPKLTALLGNDNYKQIAMCVLYHISMDDRFKSMFAYTDCIPQLMKMLFECSDERIDLELISFCINLAANKRNVQLICEGNGLKMLMKRALKFKDPLLMKMIRNISQHDGPTKNLFIDYVGDLAAQISNDEEEEFVIECLGTLANLTIPDLDWELVLKEYKLVPYLKDKLKPGAAEDDLVLEVVIMIGTVSMDDSCAALLAKSGIIPALIELLNAQQEDDEFVCQIIYVFYQMVFHQATRDVIIKETQAPAYLIDLMHDKNNEIRKVCDNTLDIIAEYDEEWAKKIQSEKFRWHNSQWLEMVESRQMDESEQYLYGDDRIEPYIHEGDILERPDLFYNSDGLIASEGAISPDFFNDYHLQNGDVVGQHSFPGSLGMDGFGQPVGILGRPATAYGFRPDEPYYYGYGS
partner: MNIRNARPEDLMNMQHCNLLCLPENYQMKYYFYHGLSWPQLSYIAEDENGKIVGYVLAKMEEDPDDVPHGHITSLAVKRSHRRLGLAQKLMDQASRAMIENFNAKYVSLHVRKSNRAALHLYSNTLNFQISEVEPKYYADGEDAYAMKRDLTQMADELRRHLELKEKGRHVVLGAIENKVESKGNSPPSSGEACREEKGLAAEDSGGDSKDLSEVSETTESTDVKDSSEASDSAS
B2: Maspardin (Homo sapiens), Q9NZD8 (parent)
chain: MGEIKVSPDYNWFRGTVPLKKIIVDDDDSKIWSLYDAGPRSIRCPLIFLPPVSGTADVFFRQILALTGWGYRVIALQYPVYWDHLEFCDGFRKLLDHLQLDKVHLFGASLGGFLAQKFAEYTHKSPRVHSLILCNSFSDTSIFNQTWTANSFWLMPAFMLKKIVLGNFSSGPVDPMMADAIDFMVDRLESLGQSELASRLTLNCQNSYVEPHKIRDIPVTIMDVFDQSALSTEAKEEMYKLYPNARRAHLKTGGNFPYLCRSAEVNLYVQIHLLQFHGTKYAAIDPSMVSAEELEVQKGSLGISQEEQ
partner: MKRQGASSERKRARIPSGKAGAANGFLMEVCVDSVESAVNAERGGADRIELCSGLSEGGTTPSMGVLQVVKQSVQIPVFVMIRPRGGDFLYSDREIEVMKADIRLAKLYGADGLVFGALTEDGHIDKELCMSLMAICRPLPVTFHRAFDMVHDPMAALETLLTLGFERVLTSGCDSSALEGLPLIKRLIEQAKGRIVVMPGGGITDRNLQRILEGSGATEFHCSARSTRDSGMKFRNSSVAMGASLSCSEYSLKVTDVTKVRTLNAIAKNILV
B3: Alpha-taxilin (Homo sapiens), P40222 (parent)
chain: MKNQDKKNGAAKQSNPKSSPGQPEAGPEGAQERPSQAAPAVEAEGPGSSQAPRKPEGAQARTAQSGALRDVSEELSRQLEDILSTYCVDNNQGGPGEDGAQGEPAEPEDAEKSRTYVARNGEPEPTPVVNGEKEPSKGDPNTEEIRQSDEVGDRDHRRPQEKKKAKGLGKEITLLMQTLNTLSTPEEKLAALCKKYAELLEEHRNSQKQMKLLQKKQSQLVQEKDHLRGEHSKAVLARSKLESLCRELQRHNRSLKEEGVQRAREEEEKRKEVTSHFQVTLNDIQLQMEQHNERNSKLRQENMELAERLKKLIEQYELREEHIDKVFKHKDLQQQLVDAKLQQAQEMLKEAEERHQREKDFLLKEAVESQRMCELMKQQETHLKQQLALYTEKFEEFQNTLSKSSEVFTTFKQEMEKMTKKIKKLEKETTMYRSRWESSNKALLEMAEEKTVRDKELEGLQVKIQRLEKLCRALQTERNDLNKRVQDLSAGGQGSLTDSGPERRPEGPGAQAPSSPRVTEAPCYPGAPSTEASGQTGPQEPTSARA
partner: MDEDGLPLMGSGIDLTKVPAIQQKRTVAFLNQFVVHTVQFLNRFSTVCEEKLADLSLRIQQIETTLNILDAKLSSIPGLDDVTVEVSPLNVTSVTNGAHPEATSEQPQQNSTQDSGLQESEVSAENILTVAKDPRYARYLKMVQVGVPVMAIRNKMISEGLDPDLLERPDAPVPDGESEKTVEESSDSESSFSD
B4: Vacuolar-sorting protein SNF8 (Homo sapiens), Q96H20 (parent)
chain: MHRRGVGAGAIAKKKLAEAKYKERGTVLAEDQLAQMSKQLDMFKTNLEEFASKHKQEIRKNPEFRVQFQDMCATIGVDPLASGKGFWSEMLGVGDFYYELGVQIIEVCLALKHRNGGLITLEELHQQVLKGRGKFAQDVSQDDLIRAIKKLKALGTGFGIIPVGGTYLIQSVPAELNMDHTVVLQLAEKNGYVTVSEIKASLKWETERARQVLEHLLKEGLAWLDLQAPGEAHYWLPALFTDLYSQEITAEEAREALP
partner: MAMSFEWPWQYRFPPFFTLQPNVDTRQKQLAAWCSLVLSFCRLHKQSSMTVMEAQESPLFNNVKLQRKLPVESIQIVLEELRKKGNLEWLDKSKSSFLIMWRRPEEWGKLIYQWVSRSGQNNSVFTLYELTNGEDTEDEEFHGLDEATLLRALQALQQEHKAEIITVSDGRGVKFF
B5: Ribose-phosphate pyrophosphokinase 1 (Homo sapiens), P60891 (parent)
chain: MPNIKIFSGSSHQDLSQKIADRLGLELGKVVTKKFSNQETCVEIGESVRGEDVYIVQSGCGEINDNLMELLIMINACKIASASRVTAVIPCFPYARQDKKDKSRAPISAKLVANMLSVAGADHIITMDLHASQIQGFFDIPVDNLYAEPAVLKWIRENISEWRNCTIVSPDAGGAKRVTSIADRLNVDFALIHKERKKANEVDRMVLVGDVKDRVAILVDDMADTCGTICHAADKLLSAGATRVYAILTHGIFSGPAISRINNACFEAVVVTNTIPQEDKMKHCSKIQVIDISMILAEAIRRTHNGESVSYLFSHVPL
partner: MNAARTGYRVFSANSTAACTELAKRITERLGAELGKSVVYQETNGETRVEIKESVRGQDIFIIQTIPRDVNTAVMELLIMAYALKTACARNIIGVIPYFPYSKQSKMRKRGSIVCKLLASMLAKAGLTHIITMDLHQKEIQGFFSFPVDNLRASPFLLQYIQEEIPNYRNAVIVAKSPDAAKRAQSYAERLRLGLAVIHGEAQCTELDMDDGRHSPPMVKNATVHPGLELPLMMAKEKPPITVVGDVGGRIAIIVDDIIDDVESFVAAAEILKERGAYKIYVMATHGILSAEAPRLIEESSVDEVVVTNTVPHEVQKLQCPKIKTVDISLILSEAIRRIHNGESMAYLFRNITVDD
B6: ATP synthase mitochondrial F1 complex assembly factor 2 (Homo sapiens), Q8N5M1 (parent)
chain: MWRSCLRLRDGGRRLLNRPAGGPSASMSPGPTIPSPARAYAPPTERKRFYQNVSITQGEGGFEINLDHRKLKTPQAKLFTVPSEALAIAVATEWDSQQDTIKYYTMHLTTLCNTSLDNPTQRNKDQLIRAAVKFLDTDTICYRVEEPETLVELQRNEWDPIIEWAEKRYGVEISSSTSIMGPSIPAKTREVLVSHLASYNTWALQGIEFVAAQLKSMVLTLGLIDLRLTVEQAVLLSRLEEEYQIQKWGNIEWAHDYELQELRARTAAGTLFIHLCSESTTVKHKLLKE
partner: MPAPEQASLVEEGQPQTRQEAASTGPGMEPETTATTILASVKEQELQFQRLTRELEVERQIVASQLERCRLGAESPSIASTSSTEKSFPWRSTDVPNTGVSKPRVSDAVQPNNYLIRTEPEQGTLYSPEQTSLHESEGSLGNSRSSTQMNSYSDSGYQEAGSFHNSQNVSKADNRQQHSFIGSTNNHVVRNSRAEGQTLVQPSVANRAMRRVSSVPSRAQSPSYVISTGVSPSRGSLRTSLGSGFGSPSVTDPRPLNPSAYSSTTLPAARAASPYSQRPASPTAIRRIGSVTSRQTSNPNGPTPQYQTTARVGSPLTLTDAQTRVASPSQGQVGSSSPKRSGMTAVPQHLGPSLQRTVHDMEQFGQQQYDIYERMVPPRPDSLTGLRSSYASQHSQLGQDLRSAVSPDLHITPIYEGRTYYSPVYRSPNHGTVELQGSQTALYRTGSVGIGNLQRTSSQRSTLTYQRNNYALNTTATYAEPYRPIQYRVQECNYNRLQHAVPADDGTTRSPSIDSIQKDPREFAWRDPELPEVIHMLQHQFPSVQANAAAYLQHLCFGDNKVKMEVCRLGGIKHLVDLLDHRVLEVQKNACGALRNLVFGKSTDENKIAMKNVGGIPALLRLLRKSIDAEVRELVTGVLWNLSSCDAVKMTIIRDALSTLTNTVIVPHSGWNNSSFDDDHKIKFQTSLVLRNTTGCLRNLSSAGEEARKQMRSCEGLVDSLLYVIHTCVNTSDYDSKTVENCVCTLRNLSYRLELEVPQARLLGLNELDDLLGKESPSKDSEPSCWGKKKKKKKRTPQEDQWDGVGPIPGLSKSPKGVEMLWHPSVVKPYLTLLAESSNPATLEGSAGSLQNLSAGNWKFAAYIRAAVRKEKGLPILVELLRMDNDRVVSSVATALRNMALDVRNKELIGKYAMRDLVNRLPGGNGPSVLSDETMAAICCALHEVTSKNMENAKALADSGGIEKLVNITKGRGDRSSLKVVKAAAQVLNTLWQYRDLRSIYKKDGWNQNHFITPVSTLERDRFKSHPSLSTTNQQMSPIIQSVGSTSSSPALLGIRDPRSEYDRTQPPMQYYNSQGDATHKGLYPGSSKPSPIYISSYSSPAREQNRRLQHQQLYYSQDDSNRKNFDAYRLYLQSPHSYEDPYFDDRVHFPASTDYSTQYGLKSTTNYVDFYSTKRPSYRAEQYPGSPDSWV
B7: LHFPL tetraspan subfamily member 5 protein (Homo sapiens), Q8TAF8 (parent)
chain: MVKLLPAQEAAKIYHTNYVRNSRAVGVMWGTLTICFSVLVMALFIQPYWIGDSVNTPQAGYFGLFSYCVGNVLSSELICKGGPLDFSSIPSRAFKTAMFFVALGMFLIIGSIICFSLFFICNTATVYKICAWMQLAAATGLMIGCLVYPDGWDSSEVRRMCGEQTGKYTLGHCTIRWAFMLAILSIGDALILSFLAFVLGYRQDKLLPDDYKADGTEEV

Variants of: B1
Details: with naa10_human NAA10, P41227

Row | Variant | effect of a mutation on the interaction
1 | E167K | with no effect
2 | F434C | with no effect

Variants of: B2
Details: with cutc_human CUTC

Row | Variant | effect of a mutation on the interaction
3 | H272D | disrupting interaction strength

Variants of: B3
Details: with wasc3_human WASHC3, Q9Y3C0

Row | Variant | effect of a mutation on the interaction
4 | P541S | with no effect
5 | S514R | with no effect

Variants of: B4
Details: with vps25_human VPS25, Q9BRG1

Row | Variant | effect of a mutation on the interaction
6 | A17T | with no effect
7 | Q185R | with no effect

Variants of: B5
Details: with kpra_human PRPSAP1, Q14558

Row | Variant | effect of a mutation on the interaction
8 | D183H | with no effect
9 | E43D | with no effect

Variants of: B5
Details: with kpra_human PRPSAP1, Q14558
Remark: another data set of the same source

Row | Variant | effect of a mutation on the interaction
10 | D203H | with no effect

Variants of: B6
Details: with pkp4_human PKP4, Q99569

Row | Variant | effect of a mutation on the interaction
11 | E241G | with no effect

Variants of: B7
Details: with BCL2L13, Q9BXK5
Chain of BCL2L13, Q9BXK5 (Q9BXK5 whole entry): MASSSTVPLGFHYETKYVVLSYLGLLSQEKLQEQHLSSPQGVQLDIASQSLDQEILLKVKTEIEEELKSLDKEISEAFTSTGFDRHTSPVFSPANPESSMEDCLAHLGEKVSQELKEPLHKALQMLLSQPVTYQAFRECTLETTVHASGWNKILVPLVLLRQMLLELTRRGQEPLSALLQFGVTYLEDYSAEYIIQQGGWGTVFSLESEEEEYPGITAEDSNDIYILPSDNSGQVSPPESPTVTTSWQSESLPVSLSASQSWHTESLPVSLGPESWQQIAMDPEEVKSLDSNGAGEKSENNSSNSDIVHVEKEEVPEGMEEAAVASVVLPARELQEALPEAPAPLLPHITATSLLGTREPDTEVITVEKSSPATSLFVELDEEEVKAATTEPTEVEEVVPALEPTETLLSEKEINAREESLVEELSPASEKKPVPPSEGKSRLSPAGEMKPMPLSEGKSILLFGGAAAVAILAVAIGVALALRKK

Row | Variant | effect of a mutation on the interaction
12 | K205N | with no effect
